Where a chain is given by its changes, count along the chain named.
B1: TM-80 (antibody, V domains shown)
VH: QVQLQQPGAELVKPGASVKLSCKASGYTFTTFWMHWVKQRPGQGLEWIGNIDPSDSETHYNQEFKDKATLTVDRSSNTAYMQLSSLTSEDSAVYYCARSSNWDNFDYWGQGTAVTVSS
VL: DIVMTQAAPSVPVTPGESVSISCRSSQSLLHVNGHTYLYWFLQRPGQSPQLLIYRMSNLASGVPDRFSGSGSGTVFTLRISRVETEDVGIYYCMQHLQYPFTFGSGTKLEIK
notes: Purified from mouse hybridoma
B2: TM-73 (antibody, V domains shown)
VH: QVQLQQPGAELVKPGASVKLSCKASGYTFTSHWMHWVKHRPGQGLEWIGEIDPSDSYTYYNQKFKGKATLTVDKSSSTVYMQLSSLTSEDSAVYYCARNYHGSGPPFAHWGQGTLVTVSS
VL: QIVLTQSPAIMSASPGEKVTLTCSASSGISYIYWYQQRPGSSPRLLIYDTSNLASGVPVRFSGSGSETSYSLTISRLEAEDAATYYCHQWRSYPPTFGGGTKLEIR
notes: Purified from mouse hybridoma
B3: TM-85 (antibody, V domains shown)
VH: QVQLQQPGAELVRAGTSVKLSCKASGYTFIGYWMHWVKQRPGRGLEWIGRIDPYSGDTRYNEKFKNKATLTVDKPSSTAYMQLSSLTSEDSAVYYCARYGLGHAMDYWGQGTSVTVSS
VL: DIAMSQSQKFMSTSVGDRVSVTCKASQNVGTNVAWYQQKPGQSPKALIYSASYRYSGVPDRFTGSGSGTDFTLTISNVQSEDLAEYFCQQYNSYPLTFGAGTKLEMK
notes: Purified from mouse hybridoma
B4: TM-91 (antibody, V domains shown)
VH: DVQLQESGPGLVKPSQSLSLTCSVTGYSITSGYYWDWIRQFPGNKLEWMGYISYDGNNNYNPSLKNRISITRDTSKNQFFLKLNSVTTEDTATYYCARAVYSVGFAYWGQGTLVTVSS
VL: B3 VL with A3V, S5T, G30Y, A46P, A100G, M106I
notes: Purified from mouse hybridoma
B5: TM-87 (antibody, V domains shown)
VH: EVQLQQSGPVLVKPGASVKLSCKASGYTFTDYYMNWVKQSHGKSLEWIGVINPYNGATSYNQKFQDKATLTVDKSSSTAYMGLNSLTSEDSAVYYCANGNYDWYFDVWGTGTTVTVSS
VL: DVQITQSPSYLAASPGETITINCRASRSISKYLAWYQEKPGKTNKLLIYSGSTLQSGIPSRFSGSGSGTDFTLTISSLEPEDFAVYYCQQHNEYPLTFGAGTKLELK
notes: Purified from mouse hybridoma
B6: TM-92 (antibody, V domains shown)
VH: EVQLQQSGPELVKPGASVKIPCKASGYTFTDYTMDWVKQSPGKSLEWIGHINPNDGGTFYNQKFKGKATLTVDKSSSTAYMELRSLTSEDSAVYYCARWVYYYGISYEGGAMDYWGQGTSVTVSS
VL: B5 VL with R27K, V85M, L96W, A100G, L106I
notes: Purified from mouse hybridoma
B7: TM-56 (antibody, V domains shown)
VH: QVHLQQSGAELAKPGASVKLSCKASGYTFTSYWMHWVKQRPGQGLEWIGYINPSSGYSKYNQRFKDKATLTADKSSTTAYMHLSSLTYADSAVYYCTREGGSISDWYFDVWGTGTTVTVSS
VL: DIEMTQAAPSVPVTPGESVSISCRSSKSLLQNNGNTYLYWFLQRPGQPPQLLIYRMSNLASGVPDRFSGSGSGTAFTLRISRVEAEDVGVYYCMQHLEYPYTFGGGTKLEIK
notes: Purified from mouse hybridoma
B8: TM-78 (antibody, V domains shown)
VH: QVQLQQPGAELVKPGASVKLSCKASGYTFTNHWMHWVRQRPGQGLEWIGNIDPSDSDTHYNHKFKDKATLIVDKSSSTAYLQLSSLTSEDSAVFYCARSRGGYYDYGEAMDYWGQGTSVTVSS
VL: B7 VL with E3V, A8T, V11I, Q31H, N32V, Y39F, P48S, Y101F, G105S
notes: Purified from mouse hybridoma
B9: TM-93 (antibody, V domains shown)
VH: QVQLKESGPGLVAPSQSLSITCTVSGFSLSSYGISWVRQPPGKGLEWLGVIWTGGGTNYNSALESRLSITKDNSKSQVFLKMNSLQTDDTARYYCARNPPKIFYDYLMYFDYWGQGTTVTVSS
VL: DIVMTQSHKLMSTSVGDRVSITCKASQDVGSAVAWYQQKPGQSPQLLIYWSSTRLPGVPDRFTGSGSGTDFTLTISNVQSEVLADYFCQQYTSYPLTFGGGTKLEIK
notes: Purified from mouse hybridoma
B10: TM-76 (antibody, V domains shown)
VH: QVTLKESGPGILQPSQTLSLTCSFSGFSLSTSGMGVSWIRKPSGKGLEWLAHIFWDDDKRYNLFLKSRLTVSKDTSSNQVFLMITSVDTTDTATYYCARMGRQRDYFDYWGQGTSLTVSS
VL: QIILTQSPAIMSASLGEEITLTCSASLSISYVHWYQQKSGASPKLLIYGTSNLASGVPSRFSGSGSGTFYSLTISSVEAEDAADYYCHQWSIYRTFGGGTKLEMK
notes: Purified from mouse hybridoma
B11: TM-84 (antibody, V domains shown)
VH: QVQLQQSGAELVKPGASVKMSCKASGYTFTTFPIEWMKQNHGKSLEWIGNFHPYNDDTKYNEKFKGKATLTVEKSSSTVYLELSRLTSDDSAVYYCARYFYGGMDYWGQGTSVTVSS
VL: DIQMTQSPASLSVSVGETVTITCRASENIYSSLGWYHQKQGKSPQLLVFAATNLADGVPSRFSGSGSGTQYSLKINSLQSEDFGTYYCQHLWSVPWTFGGGTKLEIK
notes: Purified from mouse hybridoma
B12: TM-94 (antibody, V domains shown)
VH: EVQLQQSGPELVKPGASVKIPCKASGYTFTDYNMDWVKQSHGKSLEWIGDINPYNGGTLYNQKFKGKATLTVDKSSNTAYMEIRSLTYEDTAVYYCARVGYHGTPDYWGQGTTVTVSS
VL: DVVMTQTPLSLPVSLGDQASISCRSSQSLVYSNGNTYLHWYLQRPGQSPKLLIYKVSNRFSGVPDRFSGSGSGTDFTLKISRVEAEDLGVYFCSQSTHVYTFGGGTKLEIK
notes: Purified from mouse hybridoma
B13: TM-86 (antibody, V domains shown)
VH: EVQLQQSGPVLVKPGASVKMSCKASGYTFTDYYIHWVKQSHGRSLEWIGVISPYNDNTNYNQKFKGKATLTVDKSSSTAYMELNSLTSEDSAVYYCVRTYYSNYFDYWGQGTTLTVSS
VL: DIVMTQSPSSLSVSAGEKVTMSCKSSQSLLNSGNQKNYLAWHQQRPGQPPKLLIYGASTRESGVPDRFTGSGSGTEFTLTISSVQAEDLAVYYCQNDHSYPLTFGAGTKLELK
notes: Purified from mouse hybridoma
B14: TM-88 (antibody, V domains shown)
VH: EAQLQQSGPVLVKPGASVKMSCKTSGYTFTDYYINWVKQSHGKSLEWIGVINPYSGATYYTQKFKGKATLTVDKSSSTAYMELNSQTSEDSAVYYCARGGYDYGHWYFDVWGTGTTVTVSS
VL: ETTVTQSPASLSMAIGEKVTIRCITSSDIDDHMNWYRQKPGEPPEFLISEGNALRPGVPSRFSSSGYGTDFIFTIENILSEDVADYYCLQSDNLPLTFGAGTKLELK
notes: Purified from mouse hybridoma

Each binder was assayed against T1, mouse TMEM106B (mouse, UniProt Q80X71 2-275) (assay: flow cytometry, HEK293 cells transiently transfected with murine TMEM106B).
T1 construct: Full-length cDNA transiently transfected into HEK293 cells; also called muTMEM106B; murine TMEM106B
Experimental: (§1) For screening of the hybridoma cell culture supernatants, humanTMEM106B-transfected HEK293 cells were aliquoted in 96-well round bottom plates (2×10⁵ cells per well) and incubated with 50 μL of hybridoma cell culture supernatant on ice for 30 minutes. […] Cell sorting was performed on a FACS Canto system (BD Biosciences) or iQue (Intellicyt), with sort gates drawn to exclude dead (i.e., propidium iodide-positive) cells. Median fluorescence intensity (MFI) of anti-mouse-APC MFI on TMEM106B+ HEK293 cells was calculated for each clone, and those displaying a signal of at least 2-fold over background compared to a secondary-antibody only well were taken forward for further analysis and characterization.

| Binder | fold-change in binding over parental HEK293 cells |
| --- | --- |
| B1 | 0.39 fold |
| B2 | 0.59 fold |
| B3 | 0.19 fold |
| B4 | 2.41 fold |
| B5 | 27 fold |
| B6 | 5.15 fold |
| B7 | 0.47 fold |
| B8 | 0.99 fold |
| B9 | 8.83 fold |
| B10 | 0.7 fold |
| B11 | 9.62 fold |
| B12 | 2.35 fold |
| B13 | 5.78 fold |
| B14 | 5.84 fold |

These binders were tested against T2, human TMEM106B (human, UniProt Q9NUM4 2-274) (assay: flow cytometry, HEK293 cells transiently transfected with human TMEM106B).
T2 construct: Full-length cDNA transiently transfected into HEK293 cells; also called huTMEM106B
Experimental: as §1

| Binder | fold-change in binding over parental HEK293 cells |
| --- | --- |
| B1 | 9.21 fold |
| B2 | 2.57 fold |
| B3 | 0.26 fold |
| B4 | 5.22 fold |
| B5 | 12.8 fold |
| B6 | 9.14 fold |
| B7 | 9.35 fold |
| B8 | 9.6 fold |
| B9 | 11.5 fold |
| B10 | 6.52 fold |
| B11 | 17.1 fold |
| B12 | 3.79 fold |
| B13 | 9.73 fold |
| B14 | 7.81 fold |

What follows are binders tested against T3, cynomolgus (cyno) TMEM106B (cynomolgus, UniProt Q9NUM4 2-274 (human entry)) (assay: flow cytometry, HEK293 cells transiently transfected with cyno TMEM106B).
T3 construct: Full-length cDNA transiently transfected into HEK293 cells
Experimental: as §1

| Binder | fold-change in binding over parental HEK293 cells |
| --- | --- |
| B1 | 4.33 fold |
| B2 | 1.15 fold |
| B3 | 0.18 fold |
| B4 | 2.45 fold |
| B5 | 7.21 fold |
| B6 | 5.7 fold |
| B7 | 4.49 fold |
| B8 | 6.88 fold |
| B9 | 9.21 fold |
| B10 | 4.35 fold |
| B11 | 8.43 fold |
| B12 | 6.1 fold |
| B13 | 5.81 fold |
| B14 | 7.57 fold |

Source: patent publication US20240174746A1 (Alector, published 2024)
